Data taken from patent US20180244746A1 (INSERM INSTITUT NATIONAL DE LA SANT ET DE LA RECHERCHE M …, published 2018).

T1: zinc transporter (ZnT)8 peptide on HLA-A*02:01 (human)
T1 peptide: VAANIVLTV

T2: zinc transporter (ZnT)8 peptide on HLA-A*02:01 (human)
T2 peptide: AVAANIVLTV


How the values were obtained:
[1] = biological target: T3, recombinant HLA-A2 molecules (human); experiment: stability measurement of recombinant HLA-A2 molecules complexed with the peptide (method not described; data not shown)
T3 construct: also called HLA-A*02:01

[2] = biological target: T3, recombinant HLA-A2 molecules; experiment: affinity measurement of recombinant HLA-A2 molecules complexed with the peptide (method not described; data not shown); ZnT8186-194 (…), the shorter epitope
[3] = biological target: T1, zinc transporter (ZnT)8 peptide on …; experiment: multimer staining
[4] = biological target: T2, zinc transporter (ZnT)8 peptide on …; experiment: multimer staining
[5] = biological target: T3, recombinant HLA-A2 molecules; experiment: affinity measurement of recombinant HLA-A2 molecules complexed with the peptide (method not described; data not shown); ZnT8185-194 (…), the longer variant

Binder | t1/2 (stability of the peptide/HLA-A2 complex) [1] [h] | Kd [2] [nM] | binding result [3] | binding result [4] | Kd [5] [nM]
VAANIVLTV (Synthesized by ChinaPeptides at >85% purity) [ZnT8186-194 peptide (VAANIVLTV)] | 1.8 | 15 | – | – | –
H328C 9C8 (TCR) alpha TRAV25*01 TRAJ26*01 CDR3: CAGILSYGQNFVF beta TRBV25-1*01 TRBJ1-2*01 CDR3: CASSEVGQGFNGYTF | – | – | recognises | recognises | –
AVAANIVLTV (Synthesized by ChinaPeptides at >85% purity) [ZnT8185-194 peptide (AVAANIVLTV)] | 2.3 | – | – | – | 207

The next lines start with the values.

t1/2 (stability of the peptide/HLA-A2 complex) [1] [h] | Kd [2] [nM] | binding result [3] | binding result [4] | Kd [5] [nM] | Binder
– | – | recognises | – | – | D010R 12B4 (TCR) alpha TRAV1-2*01 TRAJ26*01 CDR3: CAVDNYGQNFVF beta TRBV19*01 TRBJ2-3*01 CDR3: CASTGLAGTQYF
– | – | recognises | recognises | – | D010R 1E2 (TCR) alpha TRAV35*02 TRAJ36*01 CDR3: CAGTRNNLFF beta TRBV19*01 TRBJ2-7*01 CDR3: CASGGSSYEQYF
– | – | recognises | recognises | – | H328C 9B3 (TCR) alpha TRAV21*01 TRAJ57*01 CDR3: CAVVRTQGGSEKLVF beta TRBV9*01 TRBJ1-6*02 CDR3: CASSPWTGIPYNSPLHF
